Broadly, the Kd is a measure of binding affinity in units of concentration. Usually koff stands for a measure of how fast the partners let go of each other. In general, kon refers to the second-order rate constant of association. Low readings indicate slower complex formation, high ones faster complex formation.

First the molecules themselves.
B1: hActRIIB-hFc (human ActRIIB ECD linked to human IgG1 Fc) (Fc fusion, not shown: a dimerising Fc or GST)
chain: SGRGEAETRECIYYNANWELERTNQSGLERCEGEQDKRLHCYASWRNSSGTIELVKKGCWLDDFNCYDRQECVATEENPQVYFCCCEGNFCNERFTHLPEAGGPEVTYEPPPTAPTLLT

One experiment has as its target T1, activin A (UniProt P08476 311-426).
T1 sequence (looked up): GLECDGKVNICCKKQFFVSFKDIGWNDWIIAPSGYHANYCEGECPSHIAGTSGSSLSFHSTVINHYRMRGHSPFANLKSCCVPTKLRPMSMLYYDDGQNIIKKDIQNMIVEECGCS
Description: cell-based or functional assay.

For experiment [1], the target named is T2, hActRIIB-mFc (human; mouse, UniProt Q13705 19-137).
T2 construct: not shown: murine IgG2a Fc (captured by antibody against murine IgG2a Fc)
T2 sequence: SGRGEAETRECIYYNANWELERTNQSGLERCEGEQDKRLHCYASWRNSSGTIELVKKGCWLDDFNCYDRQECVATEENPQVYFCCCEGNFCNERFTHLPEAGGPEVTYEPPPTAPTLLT
Description: SPR (BIACORE), hActRIIB-mFc captured on anti-murine IgG2a Fc chip, antibody in solution, 25 C. Here is the method:
(§1) FIG. 2 depicts kinetic characterization of Ab-17G05 binding to hActRIIB-mFc as determined by BIACORE™-based analysis at 25° C. (A) or 37° C. (B). hActRIIB-mFc was captured on a chip with covalently immobilized antibody against murine IgG2a Fc and then exposed to Ab-17G05 at concentrations ranging from 0.0195 μg/ml to 5 μg/ml.
(§2) BIACORE™-based analysis was used to characterize binding of Ab-17G05 to ActRIIB. For this analysis, Ab-17G05 was purified from COS-cell-conditioned media by one-step protein G chromatography.
(In general: In SPR one partner is held on a chip, and binding of the other changes the refractive index at the surface.)

Experiment [2] concerns the target B1. Description: cell-based or functional assay.
For experiment [3], the target named is T2, hActRIIB-mFc. Kind of experiment: SPR (BIACORE), hActRIIB-mFc captured on anti-murine IgG2a Fc chip, antibody in solution, 37 C. As for the experimental part: FIG. […] (A) or 37° C. (B). hActRIIB-mFc was captured on a chip with covalently immobilized antibody against murine IgG2a Fc and then exposed to Ab-17G05 at concentrations ranging from 0.0195 μg/ml to 5 μg/ml.
as §2

Experiment [4] deals with T2, hActRIIB-mFc. Description: SPR (BIACORE), Ab-17G05 on hActRIIB-mFc compared with Fab-17G05 on hActRIIB-hFc. As for the experimental part:
as §1, §2

Experiment [5] concerns the target B1. Description: SPR (BIACORE), hActRIIB-hFc captured on anti-human IgG1 Fc chip, Fab in solution, 37 C; 37 C. As for the experimental part:
(§3) FIG. […] (A) or 37° C. (B). hActRIIB-hFc was captured on a chip with covalently immobilized antibody against human IgG1 Fc and then exposed to Fab-17G05 at concentrations ranging from 0.0195 μg/ml to 5 μg/ml. RU, response units.

Experiment [6] has as its target B1. Kind of experiment: SPR (BIACORE), hActRIIB-hFc captured on anti-human IgG1 Fc chip, Fab in solution, 37 C (values of Example 4 reprinted for comparison). As for the experimental part: as §3
Experiment [7] has as its target B1. Kind of experiment: SPR (BIACORE), hActRIIB-hFc captured on anti-human IgG1 Fc chip, Fab in solution, 25 C. As for the experimental part: (§4) FIG. 1 depicts kinetic characterization of Fab-17G05 binding to hActRIIB-hFc as determined by BIACORE™-based analysis at 25° C. (A) or 37° C. (B). hActRIIB-hFc was captured on a chip with covalently immobilized antibody against human IgG1 Fc and then exposed to Fab-17G05 at concentrations ranging from 0.0195 μg/ml to 5 μg/ml. RU, response units.

In experiment [8] the target is B1. Kind of experiment: SPR (BIACORE), hActRIIB-hFc captured on anti-human IgG1 Fc chip, Fab in solution, 37 C. As for the experimental part:
as §3

Experiment [9] deals with B1. Kind of experiment: SPR (BIACORE) competition: biotinylated ActRIIB-Fc on streptavidin chip, sFab 40 ug/ml then GDF11 500 ng/ml; competitor GDF11. As for the experimental part:
Affinity-purified sFabs were also screened in two SPR-based competition assays at Acceleron. The first assay evaluated the effect of sFab pretreatment on binding of GDF11 to immobilized ActRIIB-Fc. […] This signal was compared with a second signal (residual GDF11 binding) resulting from GDF11 binding to immobilized ActRIIB-Fc that had first been exposed to sFab (40 μg/ml).

Experiment [10] deals with B1. Kind of experiment: SPR (BIACORE), hActRIIB-hFc captured on anti-human IgG1 Fc chip, Fab in solution, 25 C (values of Example 4 reprinted for comparison); 25 C; Fab values reprinted for comparison with Ab-17G05. As for the experimental part: as §4
Experiment [11] has as its target B1. Kind of experiment: SPR (BIACORE), hActRIIB-hFc captured on anti-human IgG1 Fc chip, Fab in solution, 25 C (values of Example 4 reprinted for comparison). As for the experimental part: as §4
Experiment [12] concerns the target B1. Description: SPR (BIACORE), human ActRIIB-hFc, Fab in solution, 37 C.
Experiment [13] has as its target B1. Description: SPR (BIACORE), human ActRIIB-hFc, Fab in solution, 25 C.
The target of experiment [14] is B1. Kind of experiment: SPR (BIACORE), human ActRIIB-hFc, Fab in solution, 25 C; 25 C.

In the case of B1, the “IC50 of inhibition of activin A signaling, A204 reporter gene assay (activin A 5 ng/ml)” value in the experiment with activin A came to 0.05 µg/mL.

B2: Ab-17G05 (antibody, V domains shown)
VH: EVQLLESGGGLVQPGGSLRLSCAASGFTFSNYWMGWVRQAPGKGLEWVSYIRSSGGLTHYADSVKGRFTISRDNSKNTLYLQMNSLRAEDTATYYCAKGLYSFDYWGQGTLVTVSS
VL: DIQMTQSPSSLSASVGDRVTITCRASQGVNNFLAWYQQKPGKAPRLLIYAASTLQSGVPSRFSGSGSGTDFTLSISNLQPEDFATYYCQQSYSTPRGFGQGTKVEIK
notes: also called antibody 17G05; Ab-R17G05
In the experiment with hActRIIB-mFc [1], B2 returned a Kd of 0.028 nM, a dissociation rate constant (koff) of 2.7e-05 s⁻¹ and a kon of 970000 M⁻¹ s⁻¹. In [2], the “IC50 of neutralization, A204 cell-based reporter gene assay (activin A 5 ng/ml plus ActRIIB-Fc 50 ng/ml)” value was ~0.04 nM. Moreover, in the experiment with hActRIIB-mFc [3], the Kd was 0.092 nM, the off-rate constant (koff) was found to be 0.00014 s⁻¹ and the kon was found to be 1.5e+06 M⁻¹ s⁻¹. Also, in the experiment with hActRIIB-mFc [4], the “fold improvement in off-rate and KD against Fab-17G05” value is ≥ 20 fold.

B3: Fab-17G05 (Fab, V domains shown)
VH: EVQLLESGGGLVQPGGSLRLSCAASGFTFSNYWMGWVRQAPGKGLEWVSYIRSSGGLTHYADSVKGRFTISRDNSKNTLYLQMNSLRAEDTATYYCAKGLYSFDYWGQGTLVTVSS
VL: DIQMTQSPSSLSASVGDRVTITCRASQGVNNFLAWYQQKPGKAPRLLIYAASTLQSGVPSRFSGSGSGTDFTLSISNLQPEDFATYYCQQSYSTPRGFGQGTKVEIK
notes: the Fab constant domains are not; also called sFab 17G05; Fab-R17G05
In the case of B3, the “IC50 of neutralization, A204 cell-based reporter gene assay (activin A 5 ng/ml plus ActRIIB-Fc 50 ng/ml)” value in experiment [2] is ~2.6 nM. In addition, the Kd in experiment [5] was 1.9 nM; in experiment [6], 1.9 nM; in experiment [7], 0.55 nM; in experiment [11], 0.55 nM. Moreover, the koff worked out at 0.0031 s⁻¹ in [6], 0.00087 s⁻¹ in experiment [7], 0.0031 s⁻¹ in experiment [8] and 0.00087 s⁻¹ in [11]. The kon was 2.6e+06 M⁻¹ s⁻¹ in experiment [6], 1.6e+06 M⁻¹ s⁻¹ in experiment [7], 2.6e+06 M⁻¹ s⁻¹ in experiment [8] and 1.6e+06 M⁻¹ s⁻¹ in experiment [10]. Besides, the “residual GDF11 binding” value in [9] was < 50 % of Emax.

B4: Fab-17G01 (Fab, V domains shown)
VH: EVQLLESGGGLVQPGGSLRLSCAASGFTFSNYQMDWVRQAPGKGLEWVSYIGPSGGRTKYADSVKGRFTISRDNSKNTLYLQMNSLRAEDTATYYCARGLYSFDYWGQGTLVTVSS
VL: DIQMTQSPSSLSASVGDRVTITCRAGQSISNFLNWYQHTPGTGPKVLIYAASSLQSGVPSRFSGSGSGTEFTLTITNLQPEDFATYYCQQSYSTPFTFGPGTKVDIK
notes: Soluble Fab from Dyax's Fab310 library; the Fab constant domains are not; also called sFab 17G01
In [12], B4 had a Kd of 21 nM, a dissociation rate constant (koff) of 0.012 s⁻¹ and a kon of 580000 M⁻¹ s⁻¹. In experiment [13], this molecule came in with a Kd of 3.8 nM, an off-rate (koff) of 0.0018 s⁻¹ and a kon of 460000 M⁻¹ s⁻¹. Further, in experiment [9], the “residual GDF11 binding” value was < 50 % of Emax.

B5: Fab-17C09 (Fab, V domains shown)
VH: EVQLLESGGGLVQPGGSLRLSCAASGFTFSQYNMTWVRQAPGKGLEWVSSIYSSGGVTPYADSVKGRFTISRDNSKNTLYLQMNSLRAEDTAVYYCARGRLLFDYWGQGTLVTVSS
VL: DIQMTQSPSSLSASVGDRVTITCRASQSISNYLNWYQQRPGKPPKLLIYAASSLQSGVPSRFSGSGSGTDFSLSISILQPEDFATYYCQQGYTAPRSFGQGTKVEIK
notes: Soluble Fab from Dyax's Fab310 library; the Fab constant domains are not; also called sFab 17C09
B5: the “residual GDF11 binding” value in experiment [9] was < 50 % of Emax.

B6: Fab-17A11 (Fab, V domains shown)
VH: EVQLLESGGGLVQPGGSLRLSCAASGFTFSTYAMMWVRQAPGKGLEWVSRIYPSGGTTTYADSVKGRFTISRDNSKNTLYLQMNSLRAEDTAVYYCARGSAASSYWGQGTLVTVSS
VL: DIQMTQSPSFLSASVGDRVTITCRASQGISNYLAWYQQKPGKAPKLLIYAASTLQSGVPSRFSGSGSGTEFTLTISSLQPEDIGTYYCQQLISYPFTFGPGTKVDIK
notes: Soluble Fab from Dyax's Fab310 library; the Fab constant domains are not; also called sFab 17A11
For the molecule B6, the dissociation constant (Kd) in [12] came out at 9.9 nM; in experiment [14], 1.6 nM. Also, the off-rate constant (koff) in [12] came out at 0.014 s⁻¹; in experiment [13], 0.00019 s⁻¹. Further, the kon in [12] came out at 1.4e+06 M⁻¹ s⁻¹; in experiment [13], 1.2e+06 M⁻¹ s⁻¹. Further, the “residual GDF11 binding” value in experiment [9] is < 50 % of Emax.

These data come from patent publication US20130108650A1 (ACCELERON PHARMA, published 2013).
